Results published in the supplement of paper PMC10065799, “High-throughput profiling of sequence recognition by tyrosine kinases and SH2 domains using bacterial peptide display” (eLife, 2023).

Molecular target: MERTK (UniProt Q12866)
Assay: phosphorylation enrichment, bacterial display (enrichment ratio); higher = better substrate or ligand; peptides without Tyr show the background
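Also: 11-residue human phosphosite peptides and single-mutation variants displayed on the E. coli surface, counted by deep sequencing, each peptide's frequency after selection divided by its frequency in the unselected input library; frequency after pTyr selection over input frequency; kinase dosed for 20-30% of maximal phosphorylation in three min.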

Sequence of MERTK (Q12866 whole entry, looked up): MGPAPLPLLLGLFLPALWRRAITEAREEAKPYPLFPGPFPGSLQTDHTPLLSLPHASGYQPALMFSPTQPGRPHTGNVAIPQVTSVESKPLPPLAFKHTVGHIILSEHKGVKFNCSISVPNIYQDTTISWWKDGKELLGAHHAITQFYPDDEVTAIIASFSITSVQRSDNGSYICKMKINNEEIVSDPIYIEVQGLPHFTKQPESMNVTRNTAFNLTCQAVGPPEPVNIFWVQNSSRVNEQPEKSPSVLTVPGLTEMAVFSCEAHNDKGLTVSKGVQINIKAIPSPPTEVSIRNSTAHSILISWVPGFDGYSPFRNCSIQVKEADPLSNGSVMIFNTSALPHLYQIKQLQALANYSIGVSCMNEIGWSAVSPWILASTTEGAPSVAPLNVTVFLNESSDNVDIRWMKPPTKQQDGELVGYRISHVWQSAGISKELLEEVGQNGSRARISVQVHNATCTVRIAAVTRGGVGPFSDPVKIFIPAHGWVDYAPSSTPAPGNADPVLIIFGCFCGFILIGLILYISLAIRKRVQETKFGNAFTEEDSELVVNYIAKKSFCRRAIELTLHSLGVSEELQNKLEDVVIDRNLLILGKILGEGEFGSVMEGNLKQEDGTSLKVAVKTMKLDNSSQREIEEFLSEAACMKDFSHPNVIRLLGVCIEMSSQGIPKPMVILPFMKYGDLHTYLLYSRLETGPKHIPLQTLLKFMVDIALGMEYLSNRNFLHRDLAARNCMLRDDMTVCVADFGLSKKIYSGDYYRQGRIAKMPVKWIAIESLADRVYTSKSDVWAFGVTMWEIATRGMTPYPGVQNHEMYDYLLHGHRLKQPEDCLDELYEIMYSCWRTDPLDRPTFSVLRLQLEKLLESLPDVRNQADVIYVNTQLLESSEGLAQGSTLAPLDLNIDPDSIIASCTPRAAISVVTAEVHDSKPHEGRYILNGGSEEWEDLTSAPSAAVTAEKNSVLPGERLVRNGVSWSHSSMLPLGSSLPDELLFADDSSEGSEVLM

Sequence	phosphorylation enrichment
LITTPYIGFLG [KCNQ1_Y267_L266P]	0.554
RIPFRYPKEFQ [IDS_Y234_H229R]	0.637
LEIETDRRLLD [KRT12_Y429_Y429D]	0.93
MLEVSYVDRNS [F10_Y384_P383S]	0.37
GTHCHYKAPTV [FZD9_Y569]	0.442
PEVRRYVLPLN [RPE65_Y368]	0.92
SSFPDYLAAVD [GLB1_Y154_D151Y_YF]	0.422
YCRHNYGVVES [HLA-DRB1_Y112]	0.592
LGKLTYPVGFW [NTHL1_Y177_I176T]	0.889
LIDSSYLTRTA [GREB1L_Y1063]	0.527
QQLDKYQELLD [LMNA_Y359_E358K]	0.446
QMWLKYSQSDL [SMC1A_Y714_R711W]	0.505
SNNFIYTTLGV [FAM83B_Y639_K640T_YF]	6.9
FDDIACIRKTL [PIK3CA_Y1021_Y1021C]	0.386
CQASLYPSNHD [LRIG1_Y996_G993A]	0.42
SVVVPYEPTEV [TP53_Y220_P223T]	0.578
IRTIDYRYTVS [IDS_Y497_W502S]	0.411

Sequence	phosphorylation enrichment
HNLDFYKETTN [FGFR3_Y648_K650E_YF]	0.662
GGFNNYGFGSD [HNRNPH3_Y159_N163S_YF]	0.474
MEIHAYLKLLE [LMNA_Y376_R377L]	0.48
NRLTDYYEPLL [BBS10_Y536]	3.6
AGVDRYSLGTS [C5orf42_Y1451_P1446A]	0.394
TRDTDYQMTKR [ADA_Y308_L304R]	0.344
FADIAYNFRQG [PAH_Y166_H170Q_YF]	0.41
RDSQIYAVDFE [MRPS34_Y34_L33I_YF]	5.64
EREFKYGAHNF [OAT_Y50_YF]	0.359
QRKPSYNQLPS [BRCA2_Y71_A75P]	0.567
RNVLVYDKLNV [ROR2_Y624]	3.88
SAVVPYEPPEV [TP53_Y220_V216A]	0.409
LITTLYIGFLD [KCNQ1_Y267_G272D]	0.929
NGSFRYVIISQ [LRP1B_Y1988]	0.448
IPGRYYETGSI [PAX2_Y73_L69P]	0.405
GRERPYGGGGG [FUS_Y526_R521G]	0.968

Tested on: c-Abl (mouse)
Assay: as above

Sequence	phosphorylation enrichment
LITTPYIGFLG [KCNQ1_Y267_L266P]	0.528
RIPFRYPKEFQ [IDS_Y234_H229R]	0.998
LEIETDRRLLD [KRT12_Y429_Y429D]	2.64
MLEVSYVDRNS [F10_Y384_P383S]	0.554
GTHCHYKAPTV [FZD9_Y569]	3.71
PEVRRYVLPLN [RPE65_Y368]	1.44
SSFPDYLAAVD [GLB1_Y154_D151Y_YF]	0.703
YCRHNYGVVES [HLA-DRB1_Y112]	0.675
LGKLTYPVGFW [NTHL1_Y177_I176T]	1.32
LIDSSYLTRTA [GREB1L_Y1063]	0.634
QQLDKYQELLD [LMNA_Y359_E358K]	0.789
QMWLKYSQSDL [SMC1A_Y714_R711W]	1.11
SNNFIYTTLGV [FAM83B_Y639_K640T_YF]	1.56
FDDIACIRKTL [PIK3CA_Y1021_Y1021C]	0.661
CQASLYPSNHD [LRIG1_Y996_G993A]	0.798
SVVVPYEPTEV [TP53_Y220_P223T]	0.885
IRTIDYRYTVS [IDS_Y497_W502S]	0.46

Sequence	phosphorylation enrichment
HNLDFYKETTN [FGFR3_Y648_K650E_YF]	1.14
GGFNNYGFGSD [HNRNPH3_Y159_N163S_YF]	0.575
MEIHAYLKLLE [LMNA_Y376_R377L]	1.24
NRLTDYYEPLL [BBS10_Y536]	1.61
AGVDRYSLGTS [C5orf42_Y1451_P1446A]	0.388
TRDTDYQMTKR [ADA_Y308_L304R]	0.501
FADIAYNFRQG [PAH_Y166_H170Q_YF]	0.665
RDSQIYAVDFE [MRPS34_Y34_L33I_YF]	0.959
EREFKYGAHNF [OAT_Y50_YF]	0.401
QRKPSYNQLPS [BRCA2_Y71_A75P]	1.08
RNVLVYDKLNV [ROR2_Y624]	2.12
SAVVPYEPPEV [TP53_Y220_V216A]	0.649
LITTLYIGFLD [KCNQ1_Y267_G272D]	2.36
NGSFRYVIISQ [LRP1B_Y1988]	0.727
IPGRYYETGSI [PAX2_Y73_L69P]	0.616
GRERPYGGGGG [FUS_Y526_R521G]	0.416
